# In US20100260668A1 (published 2010):
# Molecular target: T1, DLL4 (DLL ECD His tag, R&D 1506-D4-050) (UniProt Q9NR61 27-529)
# T1 construct: extracellular domain; bought
# Experiment: BIACORE (SPR), DVD-Ig against DLL4
Binder,Kd [nM],koff [s⁻¹],kon [M⁻¹ s⁻¹]
"DVD445 (bispecific antibody, human IgG1, kappa, DVD-Ig; N-term; VD DLL4 (AB069), C-term; VD VEGF (AB071); HC linker short, LC linker short; also called DVD-Ig DVD445; DVD445H) heavy: not shown light: DIVMTQSPDSLAVSLGERATISCRASESVDNYGISFMKWFQQKPGQPPKLLIYAASNQGSGVPDRFSGSGSGTDFTLTISSLQAEDVAVYYCQQSKEVPWTFGGGTKVEIKRTVAAPDIQMTQSPSSLSASVGDRVTITCRASQVIRRSLAWYQQKPGKAPKLLIYAASNLASGVPSRFSGSGSGTDFTLTISSLQPEDFATYYCQQSNTSPLTFGQGTKVEIKRTVAAPSVFIFPPSDEQLKSGTASVVCLLNNFYPREAKVQWKVDNALQSGNSQESVTEQDSKDSTYSLSSTLTLSKADYEKHKVYACEVTHQGLSSPVTKSFNRGEC",5.01,0.000646,129000
"DVD457 (bispecific antibody, human IgG1, kappa, L234A L235A, DVD-Ig; N-term; VD DLL4 (AB069), C-term; VD VEGF (AB071); HC linker long, LC linker short; also called DVD-Ig DVD457; DVD457H) heavy: not shown light: DIVMTQSPDSLAVSLGERATISCRASESVDNYGISFMKWFQQKPGQPPKLLIYAASNQGSGVPDRFSGSGSGTDFTLTISSLQAEDVAVYYCQQSKEVPWTFGGGTKVEIKRTVAAPDIQMTQSPSSLSASVGDRVTITCRASQVIRRSLAWYQQKPGKAPKLLIYAASNLASGVPSRFSGSGSGTDFTLTISSLQPEDFATYYCQQSNTSPLTFGQGTKVEIKRTVAAPSVFIFPPSDEQLKSGTASVVCLLNNFYPREAKVQWKVDNALQSGNSQESVTEQDSKDSTYSLSSTLTLSKADYEKHKVYACEVTHQGLSSPVTKSFNRGEC",4.82,0.000578,120000
"DVD527 (bispecific antibody, human IgG1, kappa, DVD-Ig; N-term; VD DLL4 (AB073), C-term; VD VEGF (AB071); HC linker long, LC linker short; also called DVD-Ig DVD527; DVD527H) heavy: not shown light: QAVVTQESALTTSPGETVTLTCRSSTGAVTTSNYANWVQEKPDHLFTGLIGGTNNRAPGVPARFSGSLIGDKAALTITGAQTEDEAIYFCALWYSNHWVFGGGTKLTVLGQPKAAPDIQMTQSPSSLSASVGDRVTITCRASQVIRRSLAWYQQKPGKAPKLLIYAASNLASGVPSRFSGSGSGTDFTLTISSLQPEDFATYYCQQSNTSPLTFGQGTKVEIKRTVAAPSVFIFPPSDEQLKSGTASVVCLLNNFYPREAKVQWKVDNALQSGNSQESVTEQDSKDSTYSLSSTLTLSKADYEKHKVYACEVTHQGLSSPVTKSFNRGEC",1.9,0.00109,574000

# Stronger by Kd, values ahead:
Kd [nM],koff [s⁻¹],kon [M⁻¹ s⁻¹],Binder
1.51,0.0016,1.06e+06,"DVD515 (bispecific antibody, human IgG1, kappa, DVD-Ig; N-term; VD DLL4 (AB073), C-term; VD VEGF (AB071); HC linker short, LC linker short; also called DVD-Ig DVD515; DVD515H) heavy: not shown light: QAVVTQESALTTSPGETVTLTCRSSTGAVTTSNYANWVQEKPDHLFTGLIGGTNNRAPGVPARFSGSLIGDKAALTITGAQTEDEAIYFCALWYSNHWVFGGGTKLTVLGQPKAAPDIQMTQSPSSLSASVGDRVTITCRASQVIRRSLAWYQQKPGKAPKLLIYAASNLASGVPSRFSGSGSGTDFTLTISSLQPEDFATYYCQQSNTSPLTFGQGTKVEIKRTVAAPSVFIFPPSDEQLKSGTASVVCLLNNFYPREAKVQWKVDNALQSGNSQESVTEQDSKDSTYSLSSTLTLSKADYEKHKVYACEVTHQGLSSPVTKSFNRGEC"
1.16,,,"DVD485 (bispecific antibody, human IgG1, kappa, DVD-Ig; N-term; VD DLL4 (AB015), C-term; VD VEGF (AB071); HC linker short, LC linker long; also called DVD-Ig DVD485; DVD485H) heavy: not shown light: DIQMTQSPSSLSASVGDRVTITCRASQDVSTAVAWYQQKPGKAPKLLIYSASFLYSGVPSRFSGSGSGTDFTLTISSLQPEDFATTYYCQQSYTGTVTFGQGTKVEIKRTVAAPSVFIFPPDIQMTQSPSSLSASVGDRVTITCRASQVIRRSLAWYQQKPGKAPKLLIYAASNLASGVPSRFSGSGSGTDFTLTISSLQPEDFATYYCQQSNTSPLTFGQGTKVEIKRTVAAPSVFIFPPSDEQLKSGTASVVCLLNNFYPREAKVQWKVDNALQSGNSQESVTEQDSKDSTYSLSSTLTLSKADYEKHKVYACEVTHQGLSSPVTKSFNRGEC"
0.716,0.000161,226000,"DVD473 (bispecific antibody, human IgG1, kappa, DVD-Ig; N-term; VD DLL4 (AB015), C-term; VD VEGF (AB071); HC linker long, LC linker long; also called DVD-Ig DVD473; DVD473H) heavy: not shown light: DIQMTQSPSSLSASVGDRVTITCRASQDVSTAVAWYQQKPGKAPKLLIYSASFLYSGVPSRFSGSGSGTDFTLTISSLQPEDFATTYYCQQSYTGTVTFGQGTKVEIKRTVAAPSVFIFPPDIQMTQSPSSLSASVGDRVTITCRASQVIRRSLAWYQQKPGKAPKLLIYAASNLASGVPSRFSGSGSGTDFTLTISSLQPEDFATYYCQQSNTSPLTFGQGTKVEIKRTVAAPSVFIFPPSDEQLKSGTASVVCLLNNFYPREAKVQWKVDNALQSGNSQESVTEQDSKDSTYSLSSTLTLSKADYEKHKVYACEVTHQGLSSPVTKSFNRGEC"
0.237,6.35e-05,267000,"DVD491 (bispecific antibody, human IgG1, kappa, DVD-Ig; N-term; VD DLL4 (AB072), C-term; VD VEGF (AB071); HC linker short, LC linker short; also called DVD-Ig DVD491; DVD491H) heavy: not shown light: DIQMTQSSSYLSVSLGGRVTITCKASDHINNWLAWYQQKPGNAPRLLISGATSLETGVPSRFSGSGSGKDYTLSITSLQTEDVATYYCQQYWSIPLTFGAGTKLELKRTVAAPDIQMTQSPSSLSASVGDRVTITCRASQVIRRSLAWYQQKPGKAPKLLIYAASNLASGVPSRFSGSGSGTDFTLTISSLQPEDFATYYCQQSNTSPLTFGQGTKVEIKRTVAAPSVFIFPPSDEQLKSGTASVVCLLNNFYPREAKVQWKVDNALQSGNSQESVTEQDSKDSTYSLSSTLTLSKADYEKHKVYACEVTHQGLSSPVTKSFNRGEC"
